From the supplement of paper PMC10126150
± gives the standard deviation of the averaged measurements.

Test system: ATP
Test: switch fluorescence ratio, 500 uM ATP over buffer (Cy3 cluster intensity, sum of 5 cycles each) (fold (ratio)); higher = stronger signal-on switching upon ATP binding; sequences stand for … in TCGTCGGCAGCGTCAGATGTGTATAAGAGACAGTTTTTTTTTTTTTTTTTTTTTTTTT…TC
Conditions: aptamer strand: ATP DNA aptamer (quencher-CACCTGGGGGAGTATTGCGGAGGAAGG + anchor), 100 nM annealed; ATP concentration: 500 uM
Outline: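 Exposure to 500 uM ATP lasted 15 min at 22 °C before imaging, and a selection-buffer image was taken beforehand, for Cy3-labelled switching-strand clusters on a modified Illumina MiSeq flow-cell annealed to 100 nM quencher-labelled ATP aptamer. Five buffer/ATP cycles were run with NaOH stripping and re-annealing between them. The fluorescence ratio per cluster is summed target-cycle over summed buffer-cycle Cy3 intensity, averaged per switch-domain sequence. Clusters outside 100-1000 RFU were excluded.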

For TGTGAATCCA, the switch fluorescence ratio was 0.976 ± 0.027.
TGTGAATTCT showed a switch fluorescence ratio of 0.993 ± 0.023.
In the case of TGTGACAATG, the switch fluorescence ratio is reported as 0.997 ± 0.012.
Sequence TGTGACGAAC has a switch fluorescence ratio of 1.23 ± 0.045.
TGTGAGAGGT showed a switch fluorescence ratio of 0.995 ± 0.012.
Work on TGTGAGGGGG yielded a switch fluorescence ratio of 1.01 ± 0.038.
TGTGATCGAC was tested, and the switch fluorescence ratio was 1.01 ± 0.018.
TGTGATGAT showed a switch fluorescence ratio of 1.01 ± 0.028.
TGTGATGTGG gave a switch fluorescence ratio of 1.04 ± 0.083.
TGTGATTGGC was tested, and the switch fluorescence ratio was 1.03 ± 0.041.
With TGTGATTGTG the switch fluorescence ratio was 0.967 ± 0.015.
With TGTGATTTGT the switch fluorescence ratio was 0.9702 ± 0.0032.
Work on TGTGCATCT yielded a switch fluorescence ratio of 1.01 ± 0.015.
With TGTGGAATAA the switch fluorescence ratio was 1.03 ± 0.039.
In the case of TGTGGATGGT, the switch fluorescence ratio is reported as 0.956 ± 0.019.
Work on TGTGGCACAT yielded a switch fluorescence ratio of 1.005 ± 0.0065.
With TGTGGCGATT the switch fluorescence ratio was 1.02 ± 0.016.
TGTGGCGCCA showed a switch fluorescence ratio of 0.987 ± 0.04.
Sequence TGTGGCGTTT has a switch fluorescence ratio of 1.04 ± 0.059.
TGTGGCTATG showed a switch fluorescence ratio of 1.02 ± 0.014.
Sequence TGTGGGAAGG has a switch fluorescence ratio of 1.05 ± 0.074.
TGTGGGATAT gave a switch fluorescence ratio of 1.05 ± 0.068.
With TGTGGGGGCT the switch fluorescence ratio was 1 ± 0.026.
In the case of TGTGGGGGTG, the switch fluorescence ratio is reported as 1.01 ± 0.033.
TGTGGGGTTT showed a switch fluorescence ratio of 1 ± 0.057.
Sequence TGTGGGTATA has a switch fluorescence ratio of 0.995 ± 0.02.
Work on TGTGGGTCAT yielded a switch fluorescence ratio of 0.9762 ± 0.0021.
TGTGGGTGGG gave a switch fluorescence ratio of 0.978 ± 0.025.
Work on TGTGGTATGC yielded a switch fluorescence ratio of 1.01 ± 0.057.
TGTGGTGAGT gave a switch fluorescence ratio of 0.963 ± 0.012.
TGTGGTGGCG showed a switch fluorescence ratio of 0.935 ± 0.018.
TGTGGTTAGC showed a switch fluorescence ratio of 1.01 ± 0.064.
Work on TGTGGTTCGA yielded a switch fluorescence ratio of 0.972 ± 0.011.
TGTGGTTGGA gave a switch fluorescence ratio of 1 ± 0.012.
For TGTGTATGAG, the switch fluorescence ratio was 0.986 ± 0.036.
In the case of TGTGTATGCT, the switch fluorescence ratio is reported as 0.9868 ± 0.0078.
With TGTGTCAATT the switch fluorescence ratio was 0.9841 ± 0.0092.
TGTGTCATGG was tested, and the switch fluorescence ratio was 0.986 ± 0.011.
With TGTGTCTATA the switch fluorescence ratio was 0.97698 ± 0.00069.
Work on TGTGTGATAC yielded a switch fluorescence ratio of 1.549 ± 0.0055.
Work on TGTGTGCTGA yielded a switch fluorescence ratio of 1.02 ± 0.028.
For TGTGTGGGGT, the switch fluorescence ratio was 0.975 ± 0.021.
In the case of TGTGTGGGTA, the switch fluorescence ratio is reported as 0.95768 ± 0.00058.
TGTGTGGTTT was tested, and the switch fluorescence ratio was 0.986 ± 0.036.
TGTGTGTTAG showed a switch fluorescence ratio of 0.985 ± 0.016.
For TGTGTTAGAG, the switch fluorescence ratio was 1.01 ± 0.019.
Sequence TGTGTTTACC has a switch fluorescence ratio of 1.01 ± 0.043.
With TGTGTTTATT the switch fluorescence ratio was 1.051 ± 0.008.
In the case of TGTGTTTCGG, the switch fluorescence ratio is reported as 0.9799 ± 0.0082.
TGTGTTTTGG was tested, and the switch fluorescence ratio was 0.99 ± 0.027.
For TGTGTTTTT, the switch fluorescence ratio was 0.992 ± 0.038.
Work on TGTTAAGGGA yielded a switch fluorescence ratio of 1 ± 0.02.
In the case of TGTTAATCAG, the switch fluorescence ratio is reported as 0.98605 ± 0.00081.
In the case of TGTTACACCT, the switch fluorescence ratio is reported as 1.23 ± 0.025.
For TGTTAGGAGA, the switch fluorescence ratio was 1 ± 0.018.
Sequence TGTTAGGGAG has a switch fluorescence ratio of 0.987 ± 0.03.
In the case of TGTTAGGGAT, the switch fluorescence ratio is reported as 1.01 ± 0.034.
With TGTTAGGGG the switch fluorescence ratio was 1 ± 0.049.
TGTTAGGGGT gave a switch fluorescence ratio of 1 ± 0.075.
TGTTAGTATT showed a switch fluorescence ratio of 0.999 ± 0.019.
Sequence TGTTAGTGGC has a switch fluorescence ratio of 1 ± 0.04.
Sequence TGTTATAAAC has a switch fluorescence ratio of 1.02 ± 0.017.
With TGTTATAGG the switch fluorescence ratio was 1.001 ± 0.0098.
TGTTATAGGG was tested, and the switch fluorescence ratio was 1.03 ± 0.033.
TGTTATATGC gave a switch fluorescence ratio of 1 ± 0.019.
With TGTTATCGTT the switch fluorescence ratio was 0.989 ± 0.018.
Work on TGTTATTAGT yielded a switch fluorescence ratio of 1.01 ± 0.022.
TGTTCACTTT gave a switch fluorescence ratio of 1.04 ± 0.036.
With TGTTCCGGAC the switch fluorescence ratio was 1.023 ± 0.0058.
Sequence TGTTCGGTCG has a switch fluorescence ratio of 1.005 ± 0.0014.
Work on TGTTCTAGGG yielded a switch fluorescence ratio of 1.01 ± 0.013.
TGTTGAGGAA gave a switch fluorescence ratio of 1.05 ± 0.053.
Sequence TGTTGCAAGT has a switch fluorescence ratio of 0.976 ± 0.017.
Work on TGTTGCATCG yielded a switch fluorescence ratio of 1 ± 0.019.
With TGTTGCGGAT the switch fluorescence ratio was 1.24 ± 0.29.
For TGTTGCGGGT, the switch fluorescence ratio was 1.01 ± 0.042.
TGTTGGCGCG gave a switch fluorescence ratio of 0.989 ± 0.053.
Sequence TGTTGGGCCC has a switch fluorescence ratio of 1 ± 0.018.
TGTTGGGCGG gave a switch fluorescence ratio of 0.969 ± 0.026.
Sequence TGTTGGGGAG has a switch fluorescence ratio of 0.972 ± 0.025.
TGTTGGGGTG was tested, and the switch fluorescence ratio was 0.997 ± 0.045.
TGTTGGGTGT was tested, and the switch fluorescence ratio was 1.01 ± 0.031.
With TGTTGGTAAA the switch fluorescence ratio was 1.02 ± 0.024.
TGTTGGTGTA gave a switch fluorescence ratio of 0.994 ± 0.01.
With TGTTGGTTTG the switch fluorescence ratio was 1.08 ± 0.14.
